The subject of test [1] is colon cancer cell lines (e.g. HT29, SW480, T84). The test can be described thus: Upregulation of mRNA of other Reg family members in colon cancer cell lines. In kind it is cell-based. The conditions noted are these: FIG. 33. From the text:
One explanation for this finding could be that a single Reg protein can upregulate expression of other members of the Reg family.

For test [2], the system named is intestinal stem cells. The test can be described thus: Survival of intestinal stem cells following 13 Gy radiation. It counts as in vivo, mouse. Conditions: pretreatment, FIGS. 27 and 28. The method, then:
Gamma irradiation is a well-defined pro-apoptotic stimulus and is a commonly applied experimental approach to study intestinal epithelial cell death. […] At 6 hours marked apoptosis is seen in the crypt epithelium. By 24 hours, there is a loss of epithelial proliferation. Regenerating crypts, counted at 84 hours, are reflective of a single surviving stem cell.
(§1) Stem cells and their immediate progeny are the only cells in the normal epithelium that are capable of continued proliferation. In this context, epithelial malignancies may reflect a form of disordered stem cell biology. FIGS. 27 and 28 show the effect of exogenous Reg proteins on the survival of intestinal stem cells following 13 Gy radiation. […] We therefore conducted experiments to see if exogenous Reg would promote the survival of colorectal adenocarcinoma cells in response to gamma radiation.

Test [3] has as its system HT-29 cells. The test can be described thus: Bcl-xl and Bcl-2 expression after recombinant Reg Iα treatment. The conditions noted are these: FIG. 29 and 30. In kind it is cell-based. The procedure: Additional colorectal cell lines were also examined to determine if this was a generalized effect on gastrointestinal cells. […] To determine if the increases in Bcl-2 mRNA also were associated with changes in Bcl-2 protein expression, Western blotting was performed on cell lysates taken at various times following Reg treatment.

Test [4] relates to colorectal adenocarcinoma cells. The test can be described thus: Survival of colorectal adenocarcinoma cells in response to gamma radiation. The conditions noted are these: nanomolar concentrations, FIGS. 31 and 32. In kind it is cell-based.
Source text: as §1

Test [5] relates to Akt. The test can be described thus: Activation of the Akt pathway by phosphorylation in cancer cell lines. It counts as cell-based. Conditions: nanomolar concentrations; HCT116, HT29, N87 cells; FIGS. 19 and 20. From the text:
One kinase responsible for protection against apoptosis in tumor cells may be Akt/protein kinase B. Akt, also referred to as Rac, regulates the balance between survival and apoptosis by several mechanisms. Akt may regulate the expression of anti-apoptotic proteins. Because of the effect of Reg on the regulation of Bcl-2 (and Bcl-xl, discussed later), we examined the effects of recombinant Reg IV and Reg Iα on the activation of the Akt pathway. […] Activated Akt has known pleiotropic effects (beyond effects on Bcl-2 family gene expression), reducing the amount of apoptosis occurring either at baseline or in response to a known proapoptotic stimulus.

For test [6], the system named is HT29. The test can be described thus: Caspase activity in HT29 lysates following oxidative stress (hydrogen peroxide). It counts as cell-based. The conditions noted are these: nanomolar concentrations; HT29 lysates after hydrogen peroxide; FIG. 21.

The text below walks through data of US7510708B2, “Disruption of the REG pathway” (Washington University, priority 2003, dated 2009).

B1: Reg III: Recombinant human Reg III (pancreatitis-associated protein) expressed by fermentation in Pichia pastoris (protein)
chain: EEPQRELPSARIRCPKGSKAYGSHCYALFLSPKSWTDADLACQKRPSGNLVSVLSGAEGSFVSSLVKSIGNSYSYVWIGLHDPTQGTEPNGEGWEWSSSDVMNYFAWERNPSTISSPGHCASLSRSTAFLRWKDYNCNVRLPYVCKFTD
Turning to B1, the “mRNA coding for other members of the Reg gene family” value in test [1] was “upregulation of mRNA coding for other members of the Reg gene family”.

B2: Reg Iα: Recombinant human Reg Iα protein expressed by fermentation in Pichia pastoris (protein)
chain: QEAQTELPQARISCPEGTNAYRSYCYYFNEDRETWVDADLYCQNMNSGNLVSVLTQAEGAFVASLIKESGTDDFNVWIGLHDPKKNRRWHWSSGSLVSYKSWGIGAPSSVNPGYCVSLTSSTGFQKWKDVPCEDKFSFVCKFKN
For the molecule B2, the stem cell survival result in test [2] is “significantly increased stem cell survival”. Further, in test [3], the “expression of Bcl-xl and Bcl-2” value is “increased expression of Bcl-xl and Bcl-2”. Besides, the “cell survival from gamma radiation” value in test [4] is listed as “improved cell survival”. For the same molecule, the “activation by phosphorylation of Akt” value in test [5] is “rapid activation by phosphorylation of Akt”. Besides, the “mRNA coding for other members of the Reg gene family” value in test [1] is listed as “upregulation of mRNA coding for other members of the Reg gene family”. Further, the “caspase activity / protection against peroxide-induced apoptosis” value in test [6] was “reduced caspase activity”.
